{"source": "patent US20250304714A1", "about": "(Regeneron, published 2025)", "key": {"[1]": {"target": "T1, human prostate-specific membrane antigen (PSMA) (human, UniProt Q04609 1-750)", "T1 sequence (Q04609 whole entry)": "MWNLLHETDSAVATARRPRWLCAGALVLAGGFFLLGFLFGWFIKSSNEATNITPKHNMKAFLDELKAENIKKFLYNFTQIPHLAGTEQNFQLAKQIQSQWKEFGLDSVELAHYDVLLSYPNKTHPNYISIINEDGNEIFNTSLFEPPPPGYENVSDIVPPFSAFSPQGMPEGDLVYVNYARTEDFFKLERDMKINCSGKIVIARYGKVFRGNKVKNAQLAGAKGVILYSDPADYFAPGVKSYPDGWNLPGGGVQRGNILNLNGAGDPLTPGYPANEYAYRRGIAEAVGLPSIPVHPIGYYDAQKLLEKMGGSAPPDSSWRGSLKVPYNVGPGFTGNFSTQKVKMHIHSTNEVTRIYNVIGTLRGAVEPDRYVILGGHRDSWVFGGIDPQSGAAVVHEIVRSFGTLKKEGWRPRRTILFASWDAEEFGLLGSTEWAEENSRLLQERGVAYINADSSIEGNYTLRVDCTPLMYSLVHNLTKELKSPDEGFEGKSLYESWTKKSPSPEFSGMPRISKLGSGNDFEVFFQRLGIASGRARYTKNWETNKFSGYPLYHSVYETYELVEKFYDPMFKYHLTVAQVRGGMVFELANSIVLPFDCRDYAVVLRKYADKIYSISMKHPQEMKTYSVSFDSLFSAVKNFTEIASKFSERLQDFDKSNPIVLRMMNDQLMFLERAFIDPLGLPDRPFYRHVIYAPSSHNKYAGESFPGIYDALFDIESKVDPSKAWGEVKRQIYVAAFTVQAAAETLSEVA", "assay": "cell-based or functional assay"}, "[2]": {"target": "T2, human CD3 (human, UniProt P07766 23-207; P04234 22-171; P09693 23-182)", "T2 sequence (P07766 23-207 limits assumed, chain 1 of 3)": "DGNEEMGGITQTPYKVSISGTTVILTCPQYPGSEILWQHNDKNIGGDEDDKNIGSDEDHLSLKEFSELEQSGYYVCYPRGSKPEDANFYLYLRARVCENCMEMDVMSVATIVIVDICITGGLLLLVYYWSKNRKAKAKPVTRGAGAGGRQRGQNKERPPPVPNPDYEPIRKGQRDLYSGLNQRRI", "T2 sequence (P04234 22-171 limits assumed, chain 2 of 3)": "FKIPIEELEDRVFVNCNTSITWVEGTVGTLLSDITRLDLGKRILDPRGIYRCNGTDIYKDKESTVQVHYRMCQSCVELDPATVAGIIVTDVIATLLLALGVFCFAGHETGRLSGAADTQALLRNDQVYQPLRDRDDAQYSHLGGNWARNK", "T2 sequence (P09693 23-182 limits assumed, chain 3 of 3)": "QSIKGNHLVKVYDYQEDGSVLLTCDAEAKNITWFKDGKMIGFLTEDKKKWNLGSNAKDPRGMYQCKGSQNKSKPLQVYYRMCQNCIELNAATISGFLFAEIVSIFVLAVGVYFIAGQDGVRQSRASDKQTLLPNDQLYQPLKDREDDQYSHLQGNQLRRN", "assay": "cell-based or functional assay"}, "[3]": {"target": "T1, human prostate-specific membrane …", "assay": "flow cytometry (FACS) on B16F10.9/PSMA cells", "method": "(§1) Briefly, 2×10⁵ cells/well of human CD3-expressing Jurkat, cynomolgus T, or human PSMA-specific expressing cells were incubated with a serial dilution of bispecific antibodies for 30 min at 4° C. After incubation, cells were washed and a goat F(ab′)₂ anti-human Fcγ PE labeled secondary (Jackson Immunolabs) was added to the cells for an additional 30 min. Next, cells were washed, re-suspended in cold PBS+1% BSA and analyzed via flow cytometry on a BD FACS Canto II.\n(§2) For FACS analysis, cells were gated by forward scatter height vs. forward scatter area for single events selection, followed by side and forward scatters. The EC₅₀ for cell binding titration was determined using Prism software. Values were calculated using 4-parameter non-linear regression analysis."}, "[4]": {"target": "T2, human CD3", "assay": "flow cytometry (FACS) on Jurkat cells", "method": "as §1, §2"}, "[5]": {"target": "T3, cynomolgus CD3 (cynomolgus)", "T3 construct": "whole, on cells; also called CD3 on cynomolgus T cells; Cyno T-cells", "T3 sequence (Q95LI5 22-198, chain 1 of 3)": "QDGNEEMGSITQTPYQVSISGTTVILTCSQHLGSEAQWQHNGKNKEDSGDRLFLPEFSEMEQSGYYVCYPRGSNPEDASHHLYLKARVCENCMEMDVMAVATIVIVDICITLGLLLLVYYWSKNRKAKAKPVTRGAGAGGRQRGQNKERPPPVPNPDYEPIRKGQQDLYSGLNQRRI", "T3 sequence (Q95LI8 22-171, chain 2 of 3, further chain)": "as the sequence (P04234 22-171 limits assumed, chain 2 of 3) above, with I5V, N15K, I20V, S32T, D33N, I34N, T64A, S74N, V83L, H141R counted along it", "T3 sequence (Q95LI7 23-181, chain 3 of 3, further chain)": "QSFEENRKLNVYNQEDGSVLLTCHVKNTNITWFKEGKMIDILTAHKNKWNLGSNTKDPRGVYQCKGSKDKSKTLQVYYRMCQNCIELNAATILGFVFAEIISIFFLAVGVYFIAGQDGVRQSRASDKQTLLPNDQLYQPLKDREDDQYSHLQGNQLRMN", "assay": "flow cytometry (FACS) on cynomolgus T cells", "method": "as §1, §2"}, "[6]": {"target": "T4, soluble heterodimeric hCD3 mFc protein (human)", "T4 construct": "Heterodimer of two different CD3 chains fused to mFc; the names of the subunits seem to have been lost in the printed text ('hCD3 mFc'); also called soluble heterodimeric CD3 protein; Soluble Human CD3", "T4 sequence (P07766 23-126, chain 1 of 2)": "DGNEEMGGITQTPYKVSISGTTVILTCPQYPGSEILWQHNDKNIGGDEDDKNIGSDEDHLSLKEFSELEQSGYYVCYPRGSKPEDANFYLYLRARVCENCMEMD", "T4 sequence (P04234 22-105, chain 2 of 2, further chain)": "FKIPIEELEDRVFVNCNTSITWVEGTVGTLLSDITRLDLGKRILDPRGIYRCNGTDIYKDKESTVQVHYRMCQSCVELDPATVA", "assay": "SPR at 37° C., antigen-capture format, MASS-1", "method": "Measurements were conducted on a Sierra Sensors MASS-1 instrument.\nIn the antigen-capture format, the MASS-1 high-density amine sensor surface was derivatized with a goat anti-mouse IgG2a polyclonal antibody (Southern Biotech). Soluble heterodimeric CD3 protein was captured and the respective antibodies were injected over the captured antigen.\nKinetic association (kₐ) and dissociation (kd) rate constants were determined by processing and fitting the data to a 1:1 binding model using MASS-1 AnalyserR2 curve fitting software. Binding dissociation equilibrium constants (KD) and dissociative half-lives (t_{1/2}) were calculated from the kinetic rate constants as: KD (M)=kd/kₐ; and t_{1/2} (min) (In2/(60*kd)."}}, "data": [{"binder": "PSMA/CD3-001 (bispecific antibody, V domains shown, also called anti-PSMA x anti-CD3 bispecific antibody with anti-CD3 arm CD3-VH-G5) VH 1: QVQLVESGGGVVQPGRSLRLSCAASGFTFSSYGMHWVRQAPGKGLEWVAVISYAGNNKYYADSVKGRFTVSRDNSKKTLYLQMNSLRSEDTAVYYCAKDSYYDFLTDPDVLDIWGQGTMVTVSS VH 2: EVQLVESGGGLVQPGRSLRLSCAASGFTFDDYSMHWVRQAPGKGLEWVSGISWNSGSIGYADSVKGRFTISRDNAKNSLYLQMNSLRAEDTALYYCAKDGSGYGKFYYYGMDVWGQGTTVTVSS VL: not shown", "values": [{"measurement": "22RV1 Cell depletion EC50", "setting": "[1]", "value": 0.00631, "unit": "nM"}, {"measurement": "C4-2 Cell depletion EC50", "setting": "[1]", "value": 0.0215, "unit": "nM"}, {"measurement": "TrampC2.PSMA Cell depletion EC50", "setting": "[1]", "value": 0.0115, "unit": "nM"}, {"measurement": "T cell activation EC50 [M] (percent CD69+ of CD2+ T cells)", "setting": "[2]", "value": "1.34e-11", "unit": "M"}, {"measurement": "EC50", "setting": "[3]", "value": 1.31, "unit": "nM"}, {"measurement": "EC50", "setting": "[4]", "value": "~1000", "unit": "nM"}]}, {"binder": "PSMA/CD3-002 (bispecific antibody, V domains shown, also called REGN4336; anti-PSMA x anti-CD3 bispecific antibody with anti-CD3 arm CD3-VH-G20) VH 1: QVQLVESGGGVVQPGRSLRLSCAASGFTFSSYGMHWVRQAPGKGLEWVAVISYAGNNKYYADSVKGRFTVSRDNSKKTLYLQMNSLRSEDTAVYYCAKDSYYDFLTDPDVLDIWGQGTMVTVSS VH 2: EVQLVESGGGLVQPGRSLRLSCAASGFTFDDYSMHWVRQAPGKGLEWVSGISWNSGSIGYADSVKGRFTISRDNAKNSLYLQMNSLRAEDTALYYCAKYGSGYGKFYYYGMDVWGQGTTVTVSS VL: not shown", "values": [{"measurement": "22RV1 Cell depletion EC50", "setting": "[1]", "value": 0.00832, "unit": "nM"}, {"measurement": "C4-2 Cell depletion EC50", "setting": "[1]", "value": 0.0139, "unit": "nM"}, {"measurement": "T cell activation EC50 [M] (percent CD69+ of CD2+ T cells)", "setting": "[2]", "value": "6.11e-12", "unit": "M"}, {"measurement": "EC50", "setting": "[3]", "value": 2.09, "unit": "nM"}, {"measurement": "EC50", "setting": "[5]", "value": 6140, "unit": "nM"}, {"measurement": "Kd", "setting": "[6]", "value": 334, "unit": "nM"}, {"measurement": "T1/2", "setting": "[6]", "value": 2, "unit": "min"}, {"measurement": "koff", "setting": "[6]", "value": 0.00577, "unit": "s⁻¹"}, {"measurement": "kon", "setting": "[6]", "value": 17300, "unit": "M⁻¹ s⁻¹"}, {"measurement": "EC50", "setting": "[4]", "value": 210, "unit": "nM"}]}]}
